Experiments:
[1] = biological target: T1, biotinylated cynomolgus 5T4 with His-Avi tag (produced in-house) (cynomolgus monkey, UniProt Q4R8Y9 35-355, biotin on the Avi tag); assay: Octet, biotinylated antigen on streptavidin biosensors, antibody at 500 nM (bivalent)
T1 construct: also called cyno 5T4; Cyno 5T4 Octet (bivalent); not shown: C-terminal 6-His-Avi tag
T1 sequence: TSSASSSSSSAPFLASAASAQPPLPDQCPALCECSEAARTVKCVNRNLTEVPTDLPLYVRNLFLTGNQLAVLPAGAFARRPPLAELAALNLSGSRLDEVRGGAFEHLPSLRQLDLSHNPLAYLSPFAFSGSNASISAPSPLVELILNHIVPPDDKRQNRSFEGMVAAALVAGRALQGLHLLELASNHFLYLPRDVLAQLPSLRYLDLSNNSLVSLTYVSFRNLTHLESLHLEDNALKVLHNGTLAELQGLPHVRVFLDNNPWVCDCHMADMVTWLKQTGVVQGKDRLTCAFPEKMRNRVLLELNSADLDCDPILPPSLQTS

[2] = biological target: T2, biotinylated mouse 5T4 with His-Avi tag (produced in-house) (mouse, UniProt Q9Z0L0 32-361, biotin on the Avi tag); assay: as above
T2 construct: also called Mouse 5T4 Octet (bivalent); not shown: C-terminal 6-His-Avi tag
T2 sequence: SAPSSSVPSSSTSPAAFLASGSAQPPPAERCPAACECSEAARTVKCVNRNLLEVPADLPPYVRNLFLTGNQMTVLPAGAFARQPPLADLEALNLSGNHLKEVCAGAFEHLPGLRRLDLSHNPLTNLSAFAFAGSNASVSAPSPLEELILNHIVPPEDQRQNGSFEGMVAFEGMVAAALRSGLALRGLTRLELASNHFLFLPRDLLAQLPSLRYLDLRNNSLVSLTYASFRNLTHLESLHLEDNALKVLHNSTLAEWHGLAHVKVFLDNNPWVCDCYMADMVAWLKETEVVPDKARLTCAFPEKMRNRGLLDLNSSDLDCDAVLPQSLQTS

human 5T4 = biological target: T3, human 5T4 (Homo sapiens, UniProt Q13641); assay: Octet bivalent binding assay, human 5T4; design: The extracellular domain of human 5T4 was purchased from Acro Biosystems (biotinylated human 5T4 His-AVITAG™ Acro Cat No. TPG-H83Eb) or produced; made in house; key: +: An increase in signal during the association step above the negative control was considered as binding to the antigen; settings: 200 nM biotinylated antigen immobilized, antibody at 500 nM
T3 sequence (Q13641 32-355 limits assumed): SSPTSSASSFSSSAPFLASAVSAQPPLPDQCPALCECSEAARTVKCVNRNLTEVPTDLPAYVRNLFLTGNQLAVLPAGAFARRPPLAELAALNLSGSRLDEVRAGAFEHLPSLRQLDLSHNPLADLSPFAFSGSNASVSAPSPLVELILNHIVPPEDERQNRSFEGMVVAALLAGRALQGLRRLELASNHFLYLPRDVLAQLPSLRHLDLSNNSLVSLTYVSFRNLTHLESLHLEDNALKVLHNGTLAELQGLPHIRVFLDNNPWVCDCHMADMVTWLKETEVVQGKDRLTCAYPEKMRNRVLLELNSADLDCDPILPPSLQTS
Excerpt: (§1) Bivalent binding assays were employed to provide data on whether antibodies with VH/VL obtained by the phage display in Example 1 bound immobilized 5T4 from all three clinically relevant species: human, cynomolgus monkey (cyno), and mouse. For the bivalent binding and cross-reactivity assays the 5T4 human, cyno, and mouse antigens were synthesized using sequences from the protein database and expressed as biotinylated proteins using a his-avi tag and in vivo biotinylation with co-expressed BirA enzyme.
(§2) A standard Octet-based assay was used to determine qualitatively if each antibody bound to each antigen. For these assays, 200 nM biotinylated antigens were immobilized on streptavidin biosensors in 1× kinetic buffer (ForteBio). The loaded sensors were then dipped in wells containing an antibody of interest at 500 nM and the association binding signal was monitored. An increase in signal during the association step above the negative control was considered as binding to the antigen.

mouse 5T4 = biological target: T4, mouse 5T4 (Mus musculus, UniProt Q9Z0L0); assay: Octet bivalent binding assay, mouse 5T4; design: key: +: An increase in signal during the association step above the negative control was considered as binding to the antigen; settings: 200 nM biotinylated antigen immobilized, antibody at 500 nM
T4 construct: made in house
T4 sequence (Q9Z0L0 32-361 limits assumed): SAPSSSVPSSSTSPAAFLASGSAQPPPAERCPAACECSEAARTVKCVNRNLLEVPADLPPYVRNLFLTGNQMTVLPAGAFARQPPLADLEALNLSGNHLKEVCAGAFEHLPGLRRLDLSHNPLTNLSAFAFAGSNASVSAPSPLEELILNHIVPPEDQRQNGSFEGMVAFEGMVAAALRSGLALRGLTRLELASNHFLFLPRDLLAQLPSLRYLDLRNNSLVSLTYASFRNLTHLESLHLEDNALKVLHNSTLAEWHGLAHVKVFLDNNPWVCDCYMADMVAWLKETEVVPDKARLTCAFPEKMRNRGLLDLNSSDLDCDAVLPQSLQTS
Excerpt: as §1, §2

cyno 5T4 = biological target: T5, cyno 5T4 (Macaca fascicularis, UniProt Q4R8Y9); assay: Octet bivalent binding assay, cyno 5T4; design: species or system cynomolgus monkey; key: +: An increase in signal during the association step above the negative control was considered as binding to the antigen; settings: 200 nM biotinylated antigen immobilized, antibody at 500 nM
T5 construct: made in house
T5 sequence (Q4R8Y9 35-355 limits assumed): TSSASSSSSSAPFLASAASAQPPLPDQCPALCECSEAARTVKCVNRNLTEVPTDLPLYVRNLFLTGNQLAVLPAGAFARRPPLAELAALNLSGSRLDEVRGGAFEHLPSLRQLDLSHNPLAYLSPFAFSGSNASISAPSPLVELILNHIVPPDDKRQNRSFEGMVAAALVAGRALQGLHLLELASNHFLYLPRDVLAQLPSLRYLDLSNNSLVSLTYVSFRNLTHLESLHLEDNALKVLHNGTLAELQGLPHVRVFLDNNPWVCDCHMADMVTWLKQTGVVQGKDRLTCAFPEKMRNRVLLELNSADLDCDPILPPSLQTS
Excerpt: as §1, §2

[3] = biological target: T1, biotinylated cynomolgus 5T4 with …; assay: summary of Examples 2-5; form of the antigen not given
HEK-5T4 cells = assay: Internalization assay (Incucyte FabFluor-pH), HEK-5T4 cells; assay type: cell-based
Description: Adherent cells were harvested at 70-90% confluence and were plated overnight at 37° C. in a 96-well black, clear/flat bottom half-area plate (Corning 3882) at 20,000 cells/well in 50 μL culture media. For suspension cell lines, 96-well plates were coated with poly-L-ornithine solution (Millipore-Sigma) for 1 hour at 37° C. and cells were seeded at 40,000 cells per/well density in 50 μL culture media, about 1 to 2 hours prior to the assay. Antibodies were diluted in cell culture media, mixed with 3× molar concentration of Incucyte human FabFluor-pH red antibody labelling reagent and incubated for 15 minutes at room temperature. 2× final concentration of all dilutions of antibody/FabFluor mix was prepared. 50 μL of 2× antibody/Fab-Fluor mix was then directly added to every well with pre-seeded cells in duplicates and plate was quickly transferred to Incucyte. Plates were then scanned every 30 minutes for up to 24 hours. Care was taken to begin the first scanning (0 hour) within 2 to 3 minutes of adding antibody/FabFluor mix to the cells. Plates were analyzed by reading the red signal generated overtime, normalized to the % confluence of cells in that well. Few antibodies were tested at different concentrations on target cell lines, and the best concentration was selected based on a good signal:noise ratio.

B1: mAbA17 (antibody, V domains shown)
VH: EVQLVESGGGLVQPGGSLRLSCAASGFTFSRYWIHWVRQAPGKGLEWVAAIFPYSGSTLYADSVKGRFTISADTSKNTAYLQMNSLRAEDTAVYYCARSPSRSILPSGLDYWGQGTLVTVSS
VL: DIQMTQSPSSLSASVGDRVTITCRASQSVSSAVAWYQQKPGKAPKLLIYSASSLYSGVPSRFSGSRSGTDFTLTISSLQPEDFATYYCQQGDGSPYTFGQGTKVEIKR
notes: also called Antibody mAbA17
binding result [1]: binds | binding result [2]: binds

B2: mAbA17: 5T4 antibody comprising VH of SEQ ID NO:62 and VL of SEQ ID NO:63 (antibody, V domains shown)
VH: EVQLVESGGGLVQPGGSLRLSCAASGFTFSRYWIHWVRQAPGKGLEWVAAIFPYSGSTLYADSVKGRFTISADTSKNTAYLQMNSLRAEDTAVYYCARSPSRSILPSGLDYWGQGTLVTVSS
VL: DIQMTQSPSSLSASVGDRVTITCRASQSVSSAVAWYQQKPGKAPKLLIYSASSLYSGVPSRFSGSRSGTDFTLTISSLQPEDFATYYCQQGDGSPYTFGQGTKVEIK
modifications: Antibody mAbA17 VH Sequence; Antibody mAbA17 VL Sequence
Human 5T4 Octet (bivalent) (human 5T4): + | Mouse 5T4 Octet (bivalent) (mouse 5T4): + | Cyno 5T4 Octet (bivalent) (cyno 5T4): +

B3: mAbA4 (antibody, V domains shown)
VH: EVQLVESGGGLVQPGGSLRLSCAASGFTFSRYYIHWVRQAPGKGLEWVAFISPGGSYTYYADSVKGRFTISADTSKNTAYLQMNSLRAEDTAVYYCAREYYSMGVLDYWGQGTLVTVSS
VL: DIQMTQSPSSLSASVGDRVTITCRASQSVSSAVAWYQQKPGKAPKLLIYSASSLYSGVPSRFSGSRSGTDFTLTISSLQPEDFATYYCQQAYESPYTFGQGTKVEIKR
notes: also called Antibody mAbA4
binding result [3]: binds

B4: mAbA15 (antibody, V domains shown)
VH: EVQLVESGGGLVQPGGSLRLSCAASGFTFSSYYIHWVRQAPGKGLEWVAYITSTGSYTEYADSVKGRFTISADTSKNTAYLQMNSLRAEDTAVYYCARYDRSTRYSGLDYWGQGTLVTVSS
VL: DIQMTQSPSSLSASVGDRVTITCRASQSVSSAVAWYQQKPGKAPKLLIYSASSLYSGVPSRFSGSRSGTDFTLTISSLQPEDFATYYCQQAYATPVTFGQGTKVEIKR
notes: also called Antibody mAbA15
binding result [1]: binds | binding result [2]: binds

B5: mAbA4: 5T4 antibody comprising VH of SEQ ID NO:25 and VL of SEQ ID NO:26 (antibody, V domains shown)
VH: EVQLVESGGGLVQPGGSLRLSCAASGFTFSRYYIHWVRQAPGKGLEWVAFISPGGSYTYYADSVKGRFTISADTSKNTAYLQMNSLRAEDTAVYYCAREYYSMGVLDYWGQGTLVTVSS
VL: DIQMTQSPSSLSASVGDRVTITCRASQSVSSAVAWYQQKPGKAPKLLIYSASSLYSGVPSRFSGSRSGTDFTLTISSLQPEDFATYYCQQAYESPYTFGQGTKVEIK
modifications: Antibody mAbA4 VH Sequence; Antibody mAbA4 VL Sequence
internalization in HEK-5T4 cells (HEK-5T4 cells): strong internalization

B6: mAbA15: 5T4 antibody comprising VH of SEQ ID NO:44 and VL of SEQ ID NO:45 (antibody, V domains shown)
VH: EVQLVESGGGLVQPGGSLRLSCAASGFTFSSYYIHWVRQAPGKGLEWVAYITSTGSYTEYADSVKGRFTISADTSKNTAYLQMNSLRAEDTAVYYCARYDRSTRYSGLDYWGQGTLVTVSS
VL: DIQMTQSPSSLSASVGDRVTITCRASQSVSSAVAWYQQKPGKAPKLLIYSASSLYSGVPSRFSGSRSGTDFTLTISSLQPEDFATYYCQQAYATPVTFGQGTKVEIK
modifications: Antibody mAbA15 VH Sequence; Antibody mAbA15 VL Sequence
internalization in HEK-5T4 cells (HEK-5T4 cells): strong internalization | Human 5T4 Octet (bivalent) (human 5T4): + | Mouse 5T4 Octet (bivalent) (mouse 5T4): + | Cyno 5T4 Octet (bivalent) (cyno 5T4): +

Source: patent US20250295803A1, “5T4 ANTIBODY-DRUG CONJUGATES AND USES THEREOF” (EXELIXIS, INC., priority 2022, published 2025)
